The results in this text go back to paper PMC7222171 (Cellular and Molecular Immunology, 2020).

In this experiment the target is Con1 E2 soluble fragment, amino acids 384–661 (wild type) (Hepatitis C virus genotype 1b, Con1, UniProt Q9WMX2). Briefly: ELISA. In general terms: ELISA stands for enzyme-linked immunosorbent assay.
Sequence of Con1 E2 soluble fragment, amino acids 384–661 (wild type) (Q9WMX2 384-661): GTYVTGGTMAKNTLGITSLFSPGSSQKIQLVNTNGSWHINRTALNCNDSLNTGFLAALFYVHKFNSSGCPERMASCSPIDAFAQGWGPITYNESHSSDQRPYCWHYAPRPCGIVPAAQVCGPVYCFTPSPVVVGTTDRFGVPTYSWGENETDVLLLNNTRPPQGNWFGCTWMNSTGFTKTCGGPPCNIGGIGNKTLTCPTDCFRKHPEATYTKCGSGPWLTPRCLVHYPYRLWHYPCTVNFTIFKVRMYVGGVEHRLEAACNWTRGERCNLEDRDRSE

B1: AR3C double Cys mutant (double amino-acid substitution in the CX4C motif) (antibody, V domains shown)
VH: VQLLEQSGAEVKKPGSSVKVSCETSGGTFDNYALNWVRQAPGQGLEWIGGVVPLFGTTRNAQKFQGRVTISDDKSTGTGHMELRSLRSEDTAVYYCVRSVTPRYAGGGFAYGEFDYWGQGTLVTVSS
VL: EIELTQSPATLSVSPGERATLSCRASQSVSSNLAWYQQKPGQAPRLLIYGASTRATGIPARFSGSGSGTEFTLTVSRLEPEDSAVYFCQQYYRSPLTFGGGTKVEIK
For the molecule B1, the binding result is on record as “binds”.

B2: 8D6 double Cys to Ala mutant (C104A, C109A) (antibody, V domains shown)
VH: QVQLVQSGSELKKPGASLKLSCKASGYTYITPAMNWVRQAPGHGLEWMGGINTNTGNPTYAQGFAGRFVFSWDTSVSTAYLHISSLKTEDTAVYYCADTRIFSARRGTAYGGFDVWGQGTMVTVSS
VL: DIQMTQSPSSLSASVGDRITITCRASQSISNFLNWFQHRPGKAPKLLIYGATILQSGVPSRFSGSGSGTDFTLTISSLQPEDFATYYCQQSDSSTYIFGQGTKVEIK
As to B2, the binding result is reported as “binds”.
